Data taken from PMC12041854, “CARM1/PRMT4 facilitates XPF–ERCC1 heterodimer assembly and maintains nucleotide excision repair activity” (Nucleic Acids Research, 2025).

Columns and labels:
Experiment in all cases: pull-down; in vitro translated and purified XPF WT-Myc or R568K-Myc, with or without in vitro methylation by CARM1-FLAG beads (1 mM S-adenosylmethionine, 50 mM Tris-HCl pH 8.0, 10 mM DTT, 3 h at 30°C), then pulled down with GST-ERCC1; western blot
Conditions in all cases: both partners purified
[1] = biological target: T1, XPF WT-Myc after CARM1-mediated methylation (human, UniProt Q92889 1-916, arginine methylation by CARM1 in vitro; the paper names R568 as the site whose methylation promotes binding to ERCC1)
T1 construct: XPF (xeroderma pigmentosum group F protein), human; also called methylated XPF WT-Myc
T1 sequence: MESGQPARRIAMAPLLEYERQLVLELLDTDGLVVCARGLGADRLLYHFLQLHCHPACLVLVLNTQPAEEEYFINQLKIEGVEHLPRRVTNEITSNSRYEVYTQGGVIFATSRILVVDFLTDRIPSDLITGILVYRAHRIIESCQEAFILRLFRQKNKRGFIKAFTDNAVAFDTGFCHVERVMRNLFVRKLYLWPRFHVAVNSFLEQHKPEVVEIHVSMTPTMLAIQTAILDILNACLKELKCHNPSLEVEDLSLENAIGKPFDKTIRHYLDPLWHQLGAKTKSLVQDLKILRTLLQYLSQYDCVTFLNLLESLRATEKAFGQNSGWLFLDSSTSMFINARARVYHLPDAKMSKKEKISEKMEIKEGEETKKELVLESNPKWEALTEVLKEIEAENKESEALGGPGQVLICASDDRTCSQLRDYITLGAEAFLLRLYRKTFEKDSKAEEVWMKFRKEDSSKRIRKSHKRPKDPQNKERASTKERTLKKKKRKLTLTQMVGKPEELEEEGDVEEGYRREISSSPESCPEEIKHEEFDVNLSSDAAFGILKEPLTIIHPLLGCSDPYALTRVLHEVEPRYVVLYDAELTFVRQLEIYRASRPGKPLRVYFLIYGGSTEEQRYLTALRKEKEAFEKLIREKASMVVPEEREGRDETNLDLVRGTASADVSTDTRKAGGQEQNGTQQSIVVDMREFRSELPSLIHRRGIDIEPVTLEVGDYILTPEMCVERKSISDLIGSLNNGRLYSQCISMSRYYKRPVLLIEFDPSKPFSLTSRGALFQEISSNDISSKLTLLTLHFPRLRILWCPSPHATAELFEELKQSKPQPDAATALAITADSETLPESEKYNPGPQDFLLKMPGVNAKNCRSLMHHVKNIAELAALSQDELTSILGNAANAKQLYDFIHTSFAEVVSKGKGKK

[2] = biological target: T2, XPF R568K-Myc after the in vitro methylation assay with CARM1 (human, UniProt Q92889 1-916, R568K, subjected to the in vitro methylation assay with CARM1; methylated residues not stated)
T2 construct: also called R568K-Myc mutant after methylation assay
T2 sequence: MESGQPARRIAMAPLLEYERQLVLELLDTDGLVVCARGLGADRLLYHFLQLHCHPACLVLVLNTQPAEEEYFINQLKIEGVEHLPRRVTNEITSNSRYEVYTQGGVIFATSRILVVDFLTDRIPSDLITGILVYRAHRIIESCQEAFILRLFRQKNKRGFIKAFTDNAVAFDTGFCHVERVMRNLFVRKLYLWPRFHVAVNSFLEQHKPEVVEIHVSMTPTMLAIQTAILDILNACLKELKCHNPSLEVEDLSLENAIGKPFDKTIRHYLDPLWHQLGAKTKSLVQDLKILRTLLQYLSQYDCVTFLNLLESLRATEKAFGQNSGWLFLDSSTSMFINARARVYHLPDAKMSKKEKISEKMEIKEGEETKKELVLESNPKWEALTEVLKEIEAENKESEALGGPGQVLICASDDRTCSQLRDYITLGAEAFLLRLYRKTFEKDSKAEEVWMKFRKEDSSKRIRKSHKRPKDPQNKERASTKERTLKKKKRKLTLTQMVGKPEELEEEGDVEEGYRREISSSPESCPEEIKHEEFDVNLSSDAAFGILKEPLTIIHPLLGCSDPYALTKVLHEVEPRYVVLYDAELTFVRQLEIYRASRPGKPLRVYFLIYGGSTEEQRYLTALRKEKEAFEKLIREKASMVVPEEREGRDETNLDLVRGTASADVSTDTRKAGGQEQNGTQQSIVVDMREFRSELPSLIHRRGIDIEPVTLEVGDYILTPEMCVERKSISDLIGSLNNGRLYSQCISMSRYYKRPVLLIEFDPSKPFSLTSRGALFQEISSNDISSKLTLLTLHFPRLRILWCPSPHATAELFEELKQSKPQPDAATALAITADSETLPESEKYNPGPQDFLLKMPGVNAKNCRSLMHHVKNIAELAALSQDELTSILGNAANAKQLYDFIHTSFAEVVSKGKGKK

[3] = biological target: T3, in vitro translated XPF R568K-Myc (human, UniProt Q92889 1-916, R568K)
T3 construct: also called RK; source: in vitro translated (wheat germ cell-free system); used as reaction mixture, and purified (Ni-NTA, anti-Myc magnetic beads, Myc peptide elution)
T3 sequence: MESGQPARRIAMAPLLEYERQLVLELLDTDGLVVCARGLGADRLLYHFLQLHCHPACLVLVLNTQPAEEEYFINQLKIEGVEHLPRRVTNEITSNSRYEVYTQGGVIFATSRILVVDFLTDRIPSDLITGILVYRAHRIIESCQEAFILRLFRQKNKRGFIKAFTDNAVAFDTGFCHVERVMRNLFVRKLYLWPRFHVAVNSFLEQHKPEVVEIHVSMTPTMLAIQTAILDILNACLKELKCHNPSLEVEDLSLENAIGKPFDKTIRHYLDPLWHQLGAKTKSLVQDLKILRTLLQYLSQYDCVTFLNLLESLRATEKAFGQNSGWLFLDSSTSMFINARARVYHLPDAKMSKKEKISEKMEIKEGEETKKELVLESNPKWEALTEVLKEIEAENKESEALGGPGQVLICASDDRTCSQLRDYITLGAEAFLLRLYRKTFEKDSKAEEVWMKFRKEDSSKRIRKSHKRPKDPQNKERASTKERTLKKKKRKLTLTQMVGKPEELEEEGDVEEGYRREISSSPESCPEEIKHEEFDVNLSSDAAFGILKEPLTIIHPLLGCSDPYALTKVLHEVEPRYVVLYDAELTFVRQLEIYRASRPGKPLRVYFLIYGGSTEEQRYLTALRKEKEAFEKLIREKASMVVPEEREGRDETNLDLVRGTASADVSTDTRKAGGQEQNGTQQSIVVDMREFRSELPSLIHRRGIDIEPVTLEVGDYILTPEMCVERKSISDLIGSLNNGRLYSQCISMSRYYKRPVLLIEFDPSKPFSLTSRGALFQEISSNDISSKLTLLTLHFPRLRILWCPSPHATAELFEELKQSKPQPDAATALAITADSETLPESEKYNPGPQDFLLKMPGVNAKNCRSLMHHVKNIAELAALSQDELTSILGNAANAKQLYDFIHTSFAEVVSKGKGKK

[4] = biological target: T4, in vitro translated XPF WT-Myc (human, UniProt Q92889 1-916)
T4 construct: XPF (xeroderma pigmentosum group F protein), human; source: in vitro translated (wheat germ cell-free system, pEU-E01-MCS); used as reaction mixture, and purified (Ni-NTA, anti-Myc magnetic beads, Myc peptide elution)
T4 sequence: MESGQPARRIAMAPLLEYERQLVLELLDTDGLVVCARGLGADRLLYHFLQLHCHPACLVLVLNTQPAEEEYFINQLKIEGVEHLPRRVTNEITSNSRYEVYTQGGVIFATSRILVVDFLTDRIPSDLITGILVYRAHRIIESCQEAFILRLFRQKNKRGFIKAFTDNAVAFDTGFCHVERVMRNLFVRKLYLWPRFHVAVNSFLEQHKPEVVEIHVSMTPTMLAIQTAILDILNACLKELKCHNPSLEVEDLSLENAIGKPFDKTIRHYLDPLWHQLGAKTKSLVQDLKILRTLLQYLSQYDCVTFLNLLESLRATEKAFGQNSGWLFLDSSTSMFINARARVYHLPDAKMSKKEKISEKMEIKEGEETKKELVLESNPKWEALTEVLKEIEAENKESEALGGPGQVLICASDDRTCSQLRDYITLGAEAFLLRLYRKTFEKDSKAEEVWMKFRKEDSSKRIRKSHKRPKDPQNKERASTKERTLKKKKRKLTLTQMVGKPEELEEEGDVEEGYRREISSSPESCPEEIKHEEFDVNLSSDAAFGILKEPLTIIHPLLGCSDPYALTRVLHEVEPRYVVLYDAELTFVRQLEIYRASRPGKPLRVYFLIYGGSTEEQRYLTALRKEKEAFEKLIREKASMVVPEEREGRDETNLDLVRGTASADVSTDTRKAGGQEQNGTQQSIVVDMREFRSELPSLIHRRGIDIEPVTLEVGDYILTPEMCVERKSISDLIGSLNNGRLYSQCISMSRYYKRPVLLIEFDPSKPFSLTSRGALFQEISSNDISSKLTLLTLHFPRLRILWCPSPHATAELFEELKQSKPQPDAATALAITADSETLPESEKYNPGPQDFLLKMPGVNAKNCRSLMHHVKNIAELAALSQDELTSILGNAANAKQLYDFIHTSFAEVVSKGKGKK

- binding result [1]: binds
- binding result [2]: binds
- binding result [3]: binds
- binding result [4]: binds
B1: GST-ERCC1 (natural protein, human)
chain: MDPGKDKEGVPQPSGPPARKKFVIPLDEDEVPPGVAKPLFRSTQSLPTVDTSAQAAPQTYAEYAISQPLEGAGATCPTGSEPLAGETPNQALKPGAKSNSIIVSPRQRGNPVLKFVRNVPWEFGDVIPDYVLGQSTCALFLSLRYHNLHPDYIHGRLQSLGKNFALRVLLVQVDVKDPQQALKELAKMCILADCTLILAWSPEEAGRYLETYKAYEQKPADLLMEKLEQDFVSRVTECLTTVKSVNKTDSQTLLTTFGSLEQLIAASREDLALCPGLGPQKARRLFDVLHEPFLKVP
notes: ERCC1 (excision repair cross-complementation group 1), human; also called E1; excision repair cross-complementation group 1; source: E. coli BL21 (pGEX 4T-3), purified (glutathione beads)
